Target: T1, extended S2 fusion intermediate of the SARS-CoV-2 spike (after S1 dissociation) (SARS-CoV-2, Victoria (probably …, UniProt P0DTC2, strain))
T1 construct: A conformational and proteolytic state of m1, seen between the virion and ACE2VLP membranes; also called extended intermediate; extended S2 intermediate
Assay: cryo-electron tomography; virions pre-incubated with WS6 (200 ug/ml, 1 h, 37 °C), then ACE2VLPs and trypsin for 30 min at 37 °C, PFA-fixed
Conditions: one partner purified

B1: WS6 S2 stem-helix broadly neutralizing antibody (antibody, V domains shown)
VH: EVQFQQSGTVLARPGASVKMSCKASGYTFTNYWIHWVKQRPGQGLEYIGGTYPGNGDTTYNQKFKGKAKVTAVTPTSTAYMDLSSLTNEDSAVYYCTRTGSYFDYWGQGTTLTVSS
VL: QIVLTQSPAIMSASPGEKVTISCSATSSVSYIYWYQQRPGSSPKPWIYRTSNLASGVPVRFSGSGSGTSYSLTISNMEAEDAATYYCQQYQSYPPTFGAGTKLELK
notes: mouse-derived antibody; Whole antibody with two arms was used (200 ug/ml in PBS); also called WS6 S2 antibody; spike stalk antibody WS6; copies: 2 + 2
binding result: binds
